The source of these data is patent US20110256153A1 (IMMUNOGEN, published 2011).

The target of test [1] is T1, human CD37 (human, UniProt P11049 1-278).
T1 construct: Tetraspanin antigen; Expressed on 300-19 cells transfected with pSRa-CD37 (entire CDS) or endogenous on WSU-DLCL-2, BJAB and Ramos lymphoma cells; also called CD37 antigen; human CD37 wildtype
T1 sequence: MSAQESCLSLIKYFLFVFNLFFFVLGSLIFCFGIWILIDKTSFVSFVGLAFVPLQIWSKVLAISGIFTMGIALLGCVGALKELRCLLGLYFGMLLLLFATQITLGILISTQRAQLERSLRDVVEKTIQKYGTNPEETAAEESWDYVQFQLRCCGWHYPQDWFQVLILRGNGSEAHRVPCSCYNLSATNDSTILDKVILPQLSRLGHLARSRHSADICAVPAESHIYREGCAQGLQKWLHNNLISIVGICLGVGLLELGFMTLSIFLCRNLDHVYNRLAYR
The test can be described thus: flow cytometry titration on Ramos cells; apparent Kd. As for the experimental part:
(§1) Binding specificity was tested by flow cytometry using purified antibodies. […] All murine antibodies were incubated for 3 h with either CD37-expressing 300-19 cells or the non-transfected 300-19 cells (1×10⁵ cells per sample) in 100 μL FACS buffer (RPMI-1640 medium supplemented with 2% normal goat serum). Then, the cells were pelleted, washed, and incubated for 1 h with 100 μL of FITC-conjugated goat anti-mouse IgG-antibody (Jackson Laboratory, 6 μg/mL in FACS buffer). The cells were pelleted again, washed with FACS buffer and resuspended in 200 μL of PBS containing 1% formaldehyde. Samples were acquired using a FACSCalibur flow cytometer with the HTS multiwell sampler or a FACS array flow cytometer and analyzed using CellQuest Pro (all from BD Biosciences, San Diego, US).
The chimeric antibodies chCD37-3 and chCD37-12 were assayed for their binding affinity to Ramos cells in comparison to their murine counterparts. Flow cytometry binding assays using Ramos cells and muCD37-3, chCD37-3, muCD37-12 and chCD37-12 antibodies were carried out and analyzed as described in Example 2 using secondary FITC-conjugated goat-anti-murine and -anti-human antibodies. FIG. 9A depicts the dose-response curves generated by non-linear regression for each antibody. The value for the apparent dissociation constant (Kd) of each antibody was calculated using GraphPad Prism v4 (GraphPad software, San Diego, Calif.).
(In flow cytometry, cells or beads pass a laser one at a time.)

Test [2] concerns the target T2, hCD37-M1 (human/murine chimera, UniProt P11049 1-281).
T2 construct: stably expressed on 300-19 cells; also called hCD37-M1 variant
T2 chain: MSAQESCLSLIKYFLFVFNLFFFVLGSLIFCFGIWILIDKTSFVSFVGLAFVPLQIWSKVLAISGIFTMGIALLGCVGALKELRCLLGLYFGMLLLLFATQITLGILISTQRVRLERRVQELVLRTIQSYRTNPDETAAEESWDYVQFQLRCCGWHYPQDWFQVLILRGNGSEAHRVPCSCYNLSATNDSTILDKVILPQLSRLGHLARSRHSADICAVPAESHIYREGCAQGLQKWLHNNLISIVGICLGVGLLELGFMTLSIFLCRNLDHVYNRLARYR
The test can be described thus: flow cytometry, 300-19 cells expressing hCD37-M1, 1.5 µg/mL antibody. As for the experimental part: as §1
(§2) Binding of various CD37 antibodies to cells expressing human CD37 wildtype and variants was analyzed by flow cytometry using 1.5 μg/mL of each antibody. The isolated antibodies of this invention were compared to commercially available CD37 antibody WR17, as well as the TRU-016 SMIP. […] Likewise, all antibodies tested bound the hCD37-M3 variant (FIG. 18B). In contrast, the isolated antibodies of this invention bound the hCD37-M1 variant, while TRU-016 and WR17 were unable to bind hCD37-M1 variant (FIG. 19A). The CD37-50 and CD37-51 antibodies and TRU-016 were also able to bind the hCD37-M45 variant. […] In contrast, the CD37-3, CD37-12, CD37-38, CD37-56 and CD37-57 antibodies require at least one of the AA residues in the hCD37-M45 variant that were changed to the corresponding murine AA residues for binding to the CD37 antigen.

For test [3], the target named is T1, human CD37. Description: flow cytometry titration on BJAB cells; apparent Kd. An outline of the steps: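 BJAB cells were incubated 3 h with titrated antibody in RPMI-1640 containing 2% goat serum, then 1 h with FITC anti-mouse or anti-human IgG, fixed in 1% formaldehyde and read by flow cytometry. Apparent Kd was derived by non-linear regression of the dose-response curves.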

For test [4], the target named is T3, hCD37-M45 (human/murine chimera, UniProt P11049 1-281).
T3 construct: stably expressed on 300-19 cells; also called hCD37-M45 variant
T3 chain: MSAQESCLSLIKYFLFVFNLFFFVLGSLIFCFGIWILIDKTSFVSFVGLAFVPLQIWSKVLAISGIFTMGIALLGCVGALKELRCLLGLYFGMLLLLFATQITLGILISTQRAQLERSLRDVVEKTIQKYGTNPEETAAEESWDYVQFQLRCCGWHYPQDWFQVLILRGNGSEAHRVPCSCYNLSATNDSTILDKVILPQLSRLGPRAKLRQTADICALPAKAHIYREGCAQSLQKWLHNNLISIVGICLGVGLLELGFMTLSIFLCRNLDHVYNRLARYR
Description: flow cytometry, 300-19 cells expressing hCD37-M45. As for the experimental part:
as §1, §2

B1: muCD37-3 (antibody, mouse IgG2a, kappa)
heavy: QVQVKESGPGLVAPSQSLSITCTVSGFSLTTSGVSWVRQPPGKGLEWLGVIWGDGSTNYHSALKSRLSIKKDHSKSQVFLKLNSLQTDDTATYYCAKGGYSLAHWGQGTLVTVSAAKTTAPSVYPLAPVCGDTTGSSVTLGCLVKGYFPEPVTLTWNSGSLSSGVHTFPAVLQSDLYTLSSSVTVTSSTWPSQSITCNVAHPASSTKVDKKIEPRGPTIKPCPPCKCPAPNLLGGPSVFIFPPKIKDVLMISLSPIVTCVVVDVSEDDPDVQISWFVNNVEVHTAQTQTHREDYNSTLRVVSALPIQHQDWMSGKEFKCKVNNKDLPAPIERTISKPKGSVRAPQVYVLPPPEEEMTKKQVTLTCMVTDFMPEDIYVEWTNNGKTELNYKNTEPVLDSDGSYFMYSKLRVEKKNWVERNSYSCSVVHEGLHNHHTTKSFSRTPGK
light: DIQMTQSPASLSVSVGETVTITCRASENIRSNLAWYQQKQGKSPQLLVNVATNLADGVPSRFSGSGSGTQYSLKINSLQSEDFGTYYCQHYWGTTWTFGGGTKLEIKRADAAPTVSIFPPSSEQLTSGGASVVCFLNNFYPKDINVKWKIDGSERQNGVLNSWTDQDSKDSTYSMSSTLTLTKDEYERHNSYTCEATHKTSTSPIVKSFNRNEC
notes: Murine hybridoma antibody; also called murine CD37-3 antibody; muCD37-3-PE
Consider B1, for which the Kd in test [1] came to 0.4 nM; in test [3], 0.2 nM. Moreover, the values for the binding result in test [2] and in test [4] were “binds” and “no binding (tested: 1.5 µg/mL)”, respectively.
